Source: article PMC11746154, “Cryo-EM structures of the Spo11 core complex bound to DNA” (Nature Structural & Molecular Biology, 2023)

B1: Rec102 (subunit of the purified S. cerevisiae Spo11 core complex) (natural protein)
chain: MARDITFLTVFLESCGAVNNDEAGKLLSAWTSTVRIEGPESTDSNSLYIPLLPPGMLKIKLNFKMNDRLVTEEQELFTKLREIVGSSIRFWEEQLFYQVQDVSTIENHVILSLKCTILTDAQISTFISKPRELHTHAKGYPEIYYLSELSTTVNFFSKEGNYVEISQVIPHFNEYFSSLIVSQLEFEYPMVFSMISRLRLKWQQSSLAPISYALTSNSVLLPIMLNMIAQDKSSTTAYQILCRRRGPPIQNFQIFSLPAVTYNK
notes: Rec102, S. cerevisiae
B2: Ski8 (subunit of the purified S. cerevisiae Spo11 core complex) (natural protein)
chain: MSKVFIATANAGKAHDADIFSVSACNSFTVSCSGDGYLKVWDNKLLDNENPKDKSYSHFVHKSGLHHVDVLQAIERDAFELCLVATTSFSGDLLFYRITREDETKKVIFEKLDLLDSDMKKHSFWALKWGASNDRLLSHRLVATDVKGTTYIWKFHPFADESNSLTLNWSPTLELQGTVESPMTPSQFATSVDISERGLIATGFNNGTVQISELSTLRPLYNFESQHSMINNSNSIRSVKFSPQGSLLAIAHDSNSFGCITLYETEFGERIGSLSVPTHSSQASLGEFAHSSWVMSLSFNDSGETLCSAGWDGKLRFWDVKTKERITTLNMHCDDIEIEEDILAVDEHGDSLAEPGVFDVKFLKKGWRSGMGADLNESLCCVCLDRSIRWFREAGGK
notes: Ski8, S. cerevisiae
B3: Rec104 (subunit of the purified S. cerevisiae Spo11 core complex) (natural protein)
chain: MSIEEEDTNKITCTQDFLHQYFVTERVSIQFGLNNKTVKRINKDEFDKAVNCIMSWTNYPKPGLKRTASTYLLSNSFKKSATVSLPFILGDPVCMPKRVESNNNDTCLLYSDTLYDDPLIQRNDQAGDEIEDEFSFTLLRSEVNEIRPISSSSTAQILQSDYSALMYERQASNGSIFQFSSP
notes: Rec104, S. cerevisiae; 182 residues as printed, of which only 9-58 are visible in the structure

Tests used:
[1] = biological target: T1, Spo11 (subunit of the purified S. cerevisiae Spo11 core complex) (S. cerevisiae, UniProt P23179 1-392); assay: cryo-EM structure; core complex (subunits co-expressed and co-purified, ~0.2 mg/ml) incubated with hairpin DNA (3.7 Å) or gapped DNA (3.3 Å) at 1:2 protein:DNA in 25 mM HEPES-NaOH pH 7.5, 150 mM NaCl, 5 mM MgCl2, 2 mM DTT, 2% glycerol, 1 h on ice; settings: both partners purified
T1 construct: Spo11, S. cerevisiae
T1 sequence: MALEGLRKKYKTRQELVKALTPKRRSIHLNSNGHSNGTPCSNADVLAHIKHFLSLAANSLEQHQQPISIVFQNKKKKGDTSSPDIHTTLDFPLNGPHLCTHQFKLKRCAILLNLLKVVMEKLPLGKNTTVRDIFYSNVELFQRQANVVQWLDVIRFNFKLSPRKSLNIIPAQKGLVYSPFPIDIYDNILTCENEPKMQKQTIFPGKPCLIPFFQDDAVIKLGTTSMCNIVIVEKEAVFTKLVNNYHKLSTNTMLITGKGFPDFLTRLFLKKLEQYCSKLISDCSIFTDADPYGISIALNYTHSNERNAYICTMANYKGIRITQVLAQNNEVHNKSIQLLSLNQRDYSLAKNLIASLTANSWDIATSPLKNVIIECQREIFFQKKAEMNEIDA

[2] = biological target: B1; assay: as above; settings: both partners purified

B1
stoichiometry N [1]: 1

B2
stoichiometry N [1]: 1

B3
stoichiometry N [2]: 1
stoichiometry N [1]: 1
